Assay [1] concerns Duchenne muscular dystrophy boys. As to conditions: orally, 100 mg/kg; cited from earlier work.
Assay [2] has as its system Anxa6^em1(GFP) mice. The experiment in a line: Prednisone injection, annexin A6GFP repair cap after laser injury of isolated myofibers. The assay is classed as in vivo, mouse. As to conditions: 1 mg/kg intraperitoneal, myofibers isolated 24 hours post injection; vs DMSO control. The procedure:
Multiphoton laser injury and imaging. Isolated fibers were subjected to laser-induced damage at room temperature using the Nikon A1R-MP multiphoton microscope. Imaging was performed using a 25×1.1 NA objective directed by the NIS-Elements AR imaging software. Green fluorescence protein (GFP) and FM 4-64 were excited using a 920 nm wavelength laser and emission wavelengths of […] and 629 nm were collected respectively. To induce laser damage on isolated myofibers, a diffraction limited spot (diameter approximately 410 nm) was created on the lateral membrane of the myofiber using a 920 nm wavelength laser at 10-15% laser power for 1 second. Time lapse images were collected as follows: one image was collected prior to damage, one image upon damage, then every 8 s for 80 s (10 images) followed by every 30 seconds for 5 min (10 images). At the end of the time lapsed image series, z-stack images were collected at 250 nm intervals through the damaged site on the myofiber directed by the NIS-Elements AR imaging software. Fluorescence intensity and cap area were measured using Fiji (NIH).
For prednisone studies, prednisone (catalog P6254) was resuspended in DMSO (catalog D2650, Sigma-Aldrich) at 5 mg/ml. Dosing was based on pretreatment weights (1 mg/kg body weight) in 30 μl total PBS. Mice were injected at 7 am on the day prior to imaging. […]

In assay [3] the test system is rat model of myocardial ischemia-reperfusion-induced injury. As to conditions: La et al., FASEB J. 2001; cited from earlier work.
Assay [4] has as its system myofibers. The experiment in a line: Annexin repair cap formation after laser injury at multiple Ca2+ concentrations. The format is cell-based, mouse. On the procedure: (§1) Electroporation, myofiber isolation, laser injury, cap and vesicle measurement. Flexor digitorum brevis (FDB) fibers were transfected with endo-free plasmid DNA by in vivo electroporation. Methods were described previously in (Demonbreun and McNally, 2015; Demonbreun et al., 2016b; DiFranco et al., 2009). Z-stack projections were acquired from consecutive acquisitions after the final time-lapse frame, approximately 4 minutes post damage, with a […] step size between slices. Z-stack renderings were constructed in FIJI. Measurement of the cap area and feret diameter were conducted from a single slice near the middle of the z-stack using FIJI imaging tools. Fibers expressing similar levels of tagged or GCaMP5G protein were compared. GCaMP5G Ca^2+ fluorescence was measured from the acquired timelapse images, using a standard rectangular ROI, placed inside the myofiber below the site of damage using FIJI. Fluorescence was expressed as F/F0. External vesicle number and GCaMP5G area were measured from endpoint z-stacks and max projection images using FIJI. Vesicles were considered external if they were found outside the sarcolemma assessed in brightfield and fluorescent channels. All measurements were acquired from myofibers isolated from at least n≥3 mice, n≥3 myofibers per mouse.
Calcium kinetics. FDB muscle was electroporated and isolated as described above. Myofibers were damaged in Ringers solution with Ca^2+ concentrations of 2 mM, 1 mM, 0.5 mM, 0.25 mM, 0.175 mM, 0.1 mM, 0.050 mM, and 0 mM. EDTA was added as a Ca^2+ chelating agent in only in the 0 mM Ca^2+ Ringers. Myofibers were isolated directly into 2 mM, 1 mM and 0.5 mM Ringers for those experiments respectively. For experiments using less than 0.5 mM Ca^2+ myofibers were isolated in 0.5 mM Ca^2+ Ringers and then diluted with 0 mM EDTA-free Ca^2+ Ringers. For 0 mM experiments, myofibers were isolated in 0.5 mM Ca^2+ Ringers and then replaced with 0 mM Ca^2++EDTA Ringers just prior to imaging. Co-electroporation of wildtype annexin+wildtype annexin constructs was performed in one mouse foot, while the contralateral foot was co-electroporated with wildtype annexin+mutant annexin. All measurements were acquired from myofibers isolated from at least n≥2 mice, n≥3 myofibers per mouse at each Ca^2+ concentration. Area-Ca^2+ curves were fitted with a Hill Curve at Ca^2+ concentrations ranging from 0-2 mM. Kinetic parameters were calculated using Prism Graphpad.
as §1, with “(Demonbreun A R, Quattrocelli M, Barefield D Y, Allen M V, Swanson K E,” for “(Demonbreun”, “McNally E M. An actin-dependent annexin complex mediates plasma membrane repair in muscle. The Journal of cell biology. 2016; 213(6):705-18; Demonbreun A R, and McNally E M. DNA Electroporation, Isolation and Imaging of Myofibers. Journal of visualized experiments: JoVE.” for “McNally,”, “106(106):e53551;” for “Demonbreun et al., 2016b;”, “M, Quinonez M, Capote J, and Vergara J. DNA transfection of mammalian skeletal muscles using in vivo electroporation. Journal of visualized experiments: JoVE. 2009; 32(32)).” for “et al., 2009).”, “Vesicles were considered external if they were found outside the sarcolemma assessed in brightfield and fluorescent channels. All measurements were acquired from myofibers isolated from at least n≥3 mice, n≥3 myofibers per mouse.” left out

Assay [5] concerns wildtype myofibers. The experiment in a line: Laser-induced membrane injury, FM 4-64 dye uptake. As to conditions: mutant A6E233A-GFP vs wildtype annexin A6-GFP expressing myofibers. The assay is classed as cell-based, mouse.
Assay [6] concerns wildtype myofibers. The experiment in a line: Laser injury FM 4-64 uptake, E coli versus HEK cell produced rANXA6. The format is cell-based, mouse. As to conditions: 13 μg/ml and 130 μg/ml; for FM 4-64 dye uptake after laser injury: vs BSA control. On the procedure: Myofiber isolation, laser injury, and dye measurement. For recombinant myofibers studies, myofibers were isolated from wildtype mice. Myofibers were incubated in Ringer's media with 13 μg/ml or 130 μg/ml human recombinant annexin, E coli or HEK cell produced. Bovine serum albumin (BSA) was used as a negative control. FM 4-64 ([…]) was added to the myofibers just prior to imaging. Fibers were subjected to laser-induced damage at room temperature using the Nikon A1R-MP multiphoton microscope. Imaging was performed using a 25×1.1 NA objective directed by the NIS-Elements AR imaging software. FM 4-64 was excited using a 920 nm wavelength laser and emission wavelengths of 575 nm and 629 nm were collected, respectively. To induce laser damage on isolated myofibers, a diffraction limited spot (diameter approximately 410 nm) was created on the lateral membrane of the myofiber using a 920 nm wavelength laser at 10-15% laser power for 1 second. FM 4-64 area was measured using FIJI from a single slice near the middle of the z-stack. Myofiber quality control was based on a number of characteristics including using adherent myofibers with intact sarcomere structure. Myofibers appeared devoid of tears or ruptures induced during the isolation protocol. The region of the myofiber selected for damage was linear and not located on a nucleus or neuromuscular junction.
Statistical analyses were performed with Prism (Graphpad, La Jolla, Calif.). Comparisons relied on ANOVA (1way ANOVA for 1 variable). P-values of less than or equal to 0.05 were considered significant. Error bars represent +/−standard error of the mean (SEM).

As to `CC/C=C\C/C=C\C/C=C\C/C=C\C/C=C\C/C=C\CCC(=O)NCCNC(=O)c1ccccc1O` [Edasalonexent], the muscle disease progression result in assay [1] is listed as “delayed muscle disease progression”.
On to `C[C@]12C=CC(=O)C=C1CC[C@@H]1[C@@H]2C(=O)C[C@@]2(C)[C@H]1CC[C@]2(O)C(=O)CO` [prednisone], for which the “annexin A6GFP repair cap size” value in assay [2] is reported as “reduced”.
As for “AC2-26: N-terminal annexin A1 peptide (AMVSEFLKQAWFIENEEQEYVQTVK; UniProt P04083 2-26, looked up, fragment) [reference compound]”, in assay [3], the cardioprotection entry was “cardioprotective response”.

B1: annexin A6E233A: Ca2+-binding mutant of annexin A6 (E233A), plasmid expressed, dominant negative (protein, UniProt P14824 2-673, looked up, variant E233A)
Annexin A6: AKIAQGAMYRGSVHDFPEFDANQDAEALYTAMKGFGSDKESILELITSRSNKQRQEICQNYKSLYGKDLIEDLKYELTGKFERLIVNLMRPLAYCDAKEIKDAISGVGTDEKCLIEILASRTNEQMHQLVAAYKDAYERDLESDIIGDTSGHFQKMLVVLLQGTRENDDVVSEDLVQQDVQDLYEAGELKWGTDEAQFIYILGNRSKQHLRLVFDEYLKTTGKPIEASIRGALSGDFEKLMLAVVKCIRSTPEYFAERLFKAMKGLGTRDNTLIRIMVSRSELDMLDIREIFRTKYEKSLYSMIKNDTSGEYKKALLKLCGGDDDAAGQFFPEAAQVAYQMWELSAVSRVELKGTVCAANDFNPDADAKALRKAMKGIGTDEATIIDIVTHRSNAQRQQIRQTFKSHFGRDLMADLKSEISGDLARLILGLMMPPAHYDAKQLKKAMEGAGTDEKTLIEILATRTNAEIRAINEAYKEDYHKSLEDALSSDTSGHFRRILISLATGNREEGGENRDQAQEDAQVAAEILEIADTPSGDKTSLETRFMTVLCTRSYPHLRRVFQEFIKKTNYDIEHVIKKEMSGDVKDAFVAIVQSVKNKPLFFADKLYKSMKGAGTDEKTLTRVMVSRSEIDLLNIRREFIEKYDKSLHQAIEGDTSGDFMKALLALCGGED
modifications: GFP tag
Turning to B1, the “annexin A1, A2 and A6 cap size with co-expressed mutant annexin A6” value in assay [4] (compared to A1+A6, A2+A6, A6+A6 controls (heterotypic)) was “significant reduction”. The “repair cap diameter (DMAX) / cap size of the co-expressed wildtype annexin of the same type” value in assay [4] (wildtype+mutant vs wildtype+wildtype co-electroporation (homotypic)) is “significantly reduced”. Besides, the “FM 4-64 fluorescence area after laser injury” value in assay [5] is given as “increased”.

B2: E coli produced rANXA6: human recombinant annexin A6 produced in E coli, from R&D Systems or CRO Evotec SE (protein, UniProt P08133 2-673, looked up)
Annexin A6: AKPAQGAKYRGSIHDFPGFDPNQDAEALYTAMKGFGSDKEAILDIITSRSNRQRQEVCQSYKSLYGKDLIADLKYELTGKFERLIVGLMRPPAYCDAKEIKDAISGIGTDEKCLIEILASRTNEQMHQLVAAYKDAYERDLEADIIGDTSGHFQKMLVVLLQGTREEDDVVSEDLVQQDVQDLYEAGELKWGTDEAQFIYILGNRSKQHLRLVFDEYLKTTGKPIEASIRGELSGDFEKLMLAVVKCIRSTPEYFAERLFKAMKGLGTRDNTLIRIMVSRSELDMLDIREIFRTKYEKSLYSMIKNDTSGEYKKTLLKLSGGDDDAAGQFFPEAAQVAYQMWELSAVARVELKGTVRPANDFNPDADAKALRKAMKGLGTDEDTIIDIITHRSNVQRQQIRQTFKSHFGRDLMTDLKSEISGDLARLILGLMMPPAHYDAKQLKKAMEGAGTDEKALIEILATRTNAEIRAINEAYKEDYHKSLEDALSSDTSGHFRRILISLATGHREEGGENLDQAREDAQVAAEILEIADTPSGDKTSLETRFMTILCTRSYPHLRRVFQEFIKMTNYDVEHTIKKEMSGDVRDAFVAIVQSVKNKPLFFADKLYKSMKGAGTDEKTLTRIMVSRSEIDLLNIRREFIEKYDKSLHQAIEGDTSGDFLKALLALCGGED
modifications: E. coli produced
notes: human recombinant annexin A6 produced in E coli, from R&D Systems or CRO Evotec SE
Regarding B2, in assay [6], the “effect on membrane repair, E coli produced compared to mammalian cell produced protein” value is reported as “not significantly different” and the “FM 4-64 dye uptake after laser injury” value is reported as “significantly less”. The “effect on membrane repair, E coli produced compared to mammalian cell produced protein” value in assay [6] (listed as annexin A6 protein produced in prokaryotic cells) was “performed as well as”.

B3: mammalian HEK cell produced rANXA6: human recombinant annexin A6 produced in mammalian HEK cells (protein, UniProt P08133 2-673, looked up)
Annexin A6: B2 Annexin A6
Take B3: the “FM 4-64 dye uptake after laser injury” value in assay [6] is on record as “significantly less”.

B4: recombinant annexin A1: recombinant annexin A1 protein (literature) (protein, UniProt P04083 2-346, looked up)
Annexin A1: AMVSEFLKQAWFIENEEQEYVQTVKSSKGGPGSAVSPYPTFNPSSDVAALHKAIMVKGVDEATIIDILTKRNNAQRQQIKAAYLQETGKPLDETLKKALTGHLEEVVLALLKTPAQFDADELRAAMKGLGTDEDTLIEILASRTNKEIRDINRVYREELKRDLAKDITSDTSGDFRNALLSLAKGDRSEDFGVNEDLADSDARALYEAGERRKGTDVNVFNTILTTRSYPQLRRVFQKYTKYSKHDMNKVLDLELKGDIEKCLTAIVKCATSKPAFFAEKLHQAMKGVGTRHKALIRIMVSRSEIDMNDIKAFYQKMYGISLCQAILDETKGDYEKILVALCGGN
For B4, in assay [3], the cardioprotection result is on record as “cardioprotective response”.

The values above are taken from patent publication US20220143136A1, “USE OF ANNEXINS IN PREVENTING AND TREATING MUSCLE MEMBRANE INJURY” (NORTHWESTERN UNIVERSITY, priority 2018, published 2022).
